From patent publication US7387779B2, “Anti-angiogenic proteins and fragments and methods of use thereof” (Beth Israel Deaconess Medical Center, priority 1998, dated 2008)

Key:
[1] = test system: A-498 (renal carcinoma) cells; experiment: Proliferation of control cells, 3H-thymidine incorporation; assay type: cell-based; settings: endostatin 0.1-10 μg/ml
Method: C-PAE cells were grown to confluence in DMEM with 10% fetal calf serum (FCS) and kept contact inhibited for 48 hours. Control cells were 786-O (renal carcinoma) cells, PC-3 cells, HPEC cells, and A-498 (renal carcinoma) cells. Cells were harvested with trypsinization (Life Technologies/Gibco BRL, Gaithersburg, Md., USA) at 37° C. for five minutes. A suspension of 12,500 cells in DMEM with 1% FCS was added to each well of a 24-well plate coated with 10 μg/ml fibronectin. The cells were incubated for 24 hours at 37° C. with 5% CO2 and 95% humidity. Medium was removed and replaced with DMEM containing 0.5% FCS and 3 ng/ml bFGF (R&D Systems, Minneapolis, Minn., USA). Unstimulated controls received no bFGF. Cells were treated with concentrations of Arresten or endostatin ranging from 0.01 to 50 μg/ml. All wells received 1 μCurie of ^3H-thymidine at the time of treatment. After 24 hours, medium was removed and the wells were washed with PBS. Cells were extracted with 1N NaOH and added to a scintillation vial containing 4 ml of ScintiVerse II (Fisher Scientific, Pittsburgh, Pa., USA) solution. Thymidine incorporation was measured using a scintillation counter. The results are shown in FIGS. 3A and 3B, which are a pair of graphs showing incorporation of ^3H-thymidine into C-PAE cells treated with varying amounts of Arresten (FIG. 3A) or endostatin (FIG. 3B). […]

HUVECs = experiment: Total protein synthesis, 35S-methionine incorporation; assay type: cell-based, human; settings: 4.5 μM; 24 hours of serum stimulation; rapamycin 100 ng/ml
Method: Primary human renal epithelial cells (HRE) were purchased from Clonetics (San Diego, Calif., USA) and were maintained in REGM (Clonetics Corp.). Other cell lines were obtained and maintained as described above. Cells were serum-starved for 24 hrs (0.5% FCS), stimulated with 10% FCS in the presence of T3 peptide, Tumstatin-44-131, endostatin or rapamycin for 12-24 hours. After pre-incubation of cells in methionine-free media for 1 hour, cells were labeled with ^35S-methionine for 1 hour and incorporation of radioactivity into trichloracetic acid precipitates was analyzed (Sudhakar, A. et al., 2000, Biochem. 39:12929-38; Maeshima, Y. et al., 1996, J. Amer. Soc. Nephrol. 7:2219-29). ANOVA with a one-tailed Student's t test was used to identify significant differences in multiple comparisons in the present study. A level of P<0.05 was considered statistically significant.

PC-3 cells = experiment: MTT cell viability assay; assay type: cell-based, human; settings: 0-50 μg/ml
Method: Cell viability was measured by MTT assay, as described above.
The effects of Tumstatin-44-131 and Tum-5-125-C-A on cell viability of C-PAE cells were not seen in control PC-3 and DU-145 cells, as shown in FIGS. 52C and 52D. […] The activity of Tumstatin-44-131 is therefore specific to endothelial cells.

FLIP = FLIP protein levels in HUVEC; assay type: cell-based, human; settings: one hour after treatment, persisting up to 24 hours
Method: FLIP Protein Levels. HUVEC cells were treated as for the ERK assay, supra, and harvested at 0, 1, 3, 6, and 24 hours. FLIP protein levels in serum treated HUVEC cells and serum+Canstatin-treated HUVEC cells were quantified using anti-FLIP antibody (Sata, M. et al., 1998, J. Biol. Chem. 273:33103-6) and normalized for protein loading using levels of vinculin and plotted as a percentage of the 0 hour time points.

ERK = ERK activation (phospho-ERK western blot) in HUVEC; assay type: cell-based, human; settings: 20 μg/ml
Method: In order to further understand the molecular mechanisms involved in Canstatin's anti-proliferative and anti-migratory activities, the effect of Canstatin on ERK (Extracellular signal-Regulated Kinase) activation induced by 20% fetal bovine serum and endothelial mitogens was assessed. HUVEC cells were cultured overnight in McCoy's medium supplemented with 20% FBS, 1% penicillin/streptomycin, 100 μg/ml heparin and 50 μg/ml endothelial mitogen (Biomedical Technologies, Inc., Cambridge, Mass., USA). The following day, cells were washed and grown for 4 hours in low serum medium (McCoy's medium supplemented with 1% penicillin/streptomycin, 100 μg/ml heparin and 5% FBS). After 4 hours, the medium was replaced with fresh low serum medium with or without 20 μg/ml Canstatin. One hour later the serum concentration was adjusted to 20% and endothelial mitogen was added to a final concentration of 50 μg/ml. At 0, 5, 10, 25, and 40 minutes, the cells were washed with PBS and lysed with passive lysis mix (Promega, Madison, Wis., USA) plus leupeptin, PMSF, NaF, Na3VO4, β-glycerophosphate, and sodium pyrophosphate. Lysates were quantified for protein concentration and separated on 12% SDS-PAGE gels. Western blots of phospho-ERK were made for serum-treated and serum+Canstatin-treated HUVECs using anti-phospho-ERK antibodies (New England Biolabs, Beverly, Mass., USA). […]

WM-164 cells = experiment: MTT cell viability assay; assay type: cell-based, human
From the text: The MTT assay was used to evaluate cell viability in C-PAE endothelial cells and WM-164 melanoma cells after treatment with Tumstatin, Tum-1, Tum-2, Tum-3 and Tum-4. The results are shown in FIGS. 34A and 34B, which are a pair of graphs showing the effect of increasing concentration (x-axis) of Tumstatin, Tum-1, Tum-2, Tum-3 and Tum-4 on the cell viability (y-axis) of C-PAE cells (FIG. 34A) and WM-164 cells (FIG. 34B). Each point represents the mean ±the standard error of the mean for triplicate wells.

B1: endostatin: tumor associated angiogenesis inhibitor used as comparator (protein, UniProt P39060 1572-1754, looked up)
Endostatin: HSHRDFQPVLHLVALNSPLSGGMRGIRGADFQCFQQARAVGLAGTFRAFLSSRLQDLYSIVRRADRAAVPIVNLKDELLFPSWEALFSGSEGPLKPGARIFSFDGKDVLRHPTWPQKSVWHGSDPNGRRLTESYCETWRTEAPSATGQASSLLGGRLLGQSAASCHHAYIVLCIENSFMTASK
modifications: Endostatin
Q: Which results are given for B1?
A: effect on proliferation [1]: did not inhibit; inhibition of protein synthesis (HUVECs): did not inhibit protein synthesis

B2: Tumstatin-44-131: residues 44 to 131 of full-length Tumstatin (SEQ ID NO:33) (protein)
chain: FSFLFVQGNQRAHGQDLGTLGSCLQRFTTMPFLFCNVNDVCNFASRNDYSYWLSTPALMPMNMAPITGRALEPYISRCTVCEGPAIAI
modifications: Tumstatin-45-132 (amino acids 45-132 of SEQ ID NO10)
Q: How did the “effect on viability of PC-3 cells” value (PC-3 cells) turn out when B2 was run?
A: Its value is “not seen”.

B3: Canstatin: NC1 domain of the α2 chain of Type IV collagen (SEQ ID NO:6) (protein, listed as Homo sapiens)
chain: VSIGYLLVKHSQTDQEPMCPVGMNKLWSGYSLLYFEGQEKAHNQDLGLAGSCLARFSTMPFLYCNPGDVCYYASRNDKSYWLSTTAPLPMMPVAEDEIKPYISRCSVCEAPAIAIAVHSQDVSIPHCPAGWRSLWIGYSFLMHTAAGDEGGGQSLVSPGSCLEDFRATPFIECNGGRGTCHYYANKYSFWLTTIPEQSFQGSPSADTLKAGLIRTHISRCQVCMKNL
Q: For B3, which FLIP protein levels (FLIP) is on record?
A: Its FLIP protein levels is “decrease in FLIP protein levels”.

Q: What about the “effect on ERK activation” value (ERK) of the same molecule?
A: The value was “did not alter early activation of ERK”.

B4: Tum-4: residues 181 to 244 of Tumstatin (SEQ ID NO:25) (protein)
chain: EFRASPFLECHGRGTCNYYSNSYSFWLASLNPERMFRKPIPSTVKAGELEKIISRCQVCMKKRH
modifications: Tum-4 (amino acids 181-244 of SEQ ID NO10)
Q: With B4 as the molecule, how does the “effect on viability of WM-164 melanoma cells” value (WM-164 cells) read?
A: Its value is “decreased the viability”.
